Reference: US20250002563A1 (UNIVERSITY OF PITTSBURGH OF THE COMMONWEALTH SYSTEM OF …, published 2025)
Numbering of substitutions follows the chain as printed.

B1: 5p-74 (VHH)
VHH: DVQLVESGGGLVQAGGSLRLSCAASGGTSRRYTMGWFRQAPGKEREFVSAISNTGATISGANSMEGRFTISRDNAKNTVYLQMNSLKPEDTAVYYCAATSRGWSIGMTYDYWGQGTQVTVSS
B2: 5p-78 (VHH)
VHH: HVQLVESGGGLVQAGGSLRLSCAAAARFSTSAMGWFRQAPGKEREFVAAVSWSNTNIHYADTVKGRFTISADTAKETVYLQMNSLKPDDTAVYYCAQGGWGLTQPIIVDYWGKGTQVTVSS
B3: 5p-82 (VHH)
VHH: HVQLVESGGGLVQAGESLRLSCVDSKRTGSRWPMGWFRQAPGKEREFVASISWTGSRTYYADSVKGRFTISRDNAENTVFLQMNSLKPEDTAVYYCAAAHARVYGANWSSSNRNDYDAWGQGTQVTVSS
B4: 5p-89 (VHH)
VHH: B3 VHH with H1E, E16G, V23E, M34V, Q82K, H100Q, A101T, N114D
B5: 5p-93 (VHH)
VHH: QVQLVESGGGLVQPGGSLRLSCAASGFTFNRYAMSWVRQAPGKGREWVSGIYSDGSETYYTESVKGRFTISRDNAKNMLYLQMNSLKPEDTALYYCAKDENAHEDYFNSGFDRKYDYWGQGTQVTVSS
notes: class III psNb
B6: 5p-98 (VHH)
VHH: QVQLVESGGGLVQPGGSLRLSCAASGRTLSNYAMGWFRQAPGKEREFVAVIRQRTGMRSYTYYADSVEGRFTISGDGAKMTVSLQMNSLKPEDTAVYYCAIDLIDDYKSTYYYSTQPSSYDYWGQGTQVTVSS
B7: 5p-99 (VHH)
VHH: HVQLVESGGGSVQPGGSLRLSCAASGLTLDHYAVGWFRQAPGKEREGVSCISSSTGSAYYADSVKGRFTISRDNAKNMMYLEMNSLKPEDTAVYYCATDLLRRMLPGSSWWCLNQNDFGSWGQGTQVTVSS
B8: 5p-4 (VHH)
VHH: QVQLVESGGGLVQAGASLRLSCAASGRTFTNSHMGWFRQAPGKERDFVAVISRSGGSTLYADSVKGRFTISRDNAKNTVYLQMNTMKPEDTAVYYCAGARTAGLTSNPSLYDYWGQGTQVTVSS
B9: 5p-126 (VHH)
VHH: B2 VHH with H1Q, I57T, D88E
B10: 5p-156 (VHH)
VHH: EVQLVESGGGLVQAGDSLRLSCVASGRTFTTSIMGWFRQAPGKEREFVAAIARNGVSTFYADSVKGRFTASRDNAKNTLYLQMNSLKPEDTGVYYCAAKPRGVGLTDRISDYDYWGQGTQVTVSS
B11: 5p-162 (VHH)
VHH: DVQLVESGGGFVQAGGSLRLSCADSGLTRSVWPMGWFRQAPGKEREFVAGIAWSGERQSYADFVKGRFTVSRDNARNTVYLQMNSLKPEDTAVYYCAAPTSGVFGRTYAPTATSSYDSWGQGTQVTVSS
B12: 5p-164 (VHH)
VHH: DVQLVESGGGLVKTGDSLRLSCAVSGGTFGSYGMAWFRQAPGKEREIVASIGRTGRTTDYADSVKGRFSIARDNAKNTVYLQMNNLKPEDTAVYYCAARIFSLNYALIGRDTNINYWGQGTQVTVSS
B13: 5p-168 (VHH)
VHH: DVQLVESGGGLVQAGASLRLSCVVSGVTFSTYGMAWFRQAPEKQRTFVATITREDTTFYADSVKGRFTISRDNAKNTVYLQMNSLKLEDTAVYYCAVRRDSSWGYSRDLFEYDDWGQGTQVTVSS
B14: 4P-84 (VHH)
VHH: HVQLVESGGGLVQAGGSLRLSCAVSGRTVSTYGMGWFRQAPGKERDFVATITRSGGTTLYADSVKGRFTISRDNAKNTVYLQMNSLKIEDTAVYYCAVRRDSSFGYSRDSFEYDDWGQGTQVTVSS
B15: 4P-86 (VHH)
VHH: B14 VHH with H1D, G35A, D46E, G55E, L59F, F104W
B16: 5p-169 (VHH)
VHH: DVQLVESGGGLVQAGGSLRLSCLVSGLTFSTYGMGWFRQAPGKEREFVAQITRSGSPTLYADSVKGRFTISRDNAKNTMYLQMNSLKIEDTAVYYCAVRRDSSWGYSRDSFEYDYWGQGTQVTVSS
B17: 5p-171 (VHH)
VHH: QVQLVESGGGLVQTGGSLRLSCAASGRTFSTYTMGWFRQAPGKEREFVAAITPTGYGTKSADSVKGRFIISRDNPKNTVYLQMNNLKPEDTAVYYCAARSGTITNQDQYDFHYWGQGTQVTVSS
B18: 5p-6 (VHH)
VHH: DVQLVESGGGLVQAGGSLRLSCAASGSTFSGNAIGWYRQAPGKQRELVATINAPGSTDYAESVKGRFTISRDNAKNTVFLQMNSLKPEDTAVYYCNVCKFLLSVLCHPGQDYWGQGTQVTVSS
B19: 5p-174 (VHH)
VHH: HVQLVESGGGLVQTGASLRLSCKASGRTFSTYTISWFRQAPGKEREFVGGVATSGGTTYYGDSVQGRFTISRDNAKNEVYLQMNSVKPEDTAVYICAARSVIQDTVVISNPIHFEYWGQGTQVTVSS
B20: 5p-176 (VHH)
VHH: EVQLVESGGRLVQAGGSLRLSCAASGRTFSTYTMAWFRQAPGKEREFVAGIARNGDTAYYSDSVKGRFTISRDNAKNEVSLQMNSLKPEDTAVYTCAARSVVQLEVVLNNPIHFEYWGQGTQVTVSS
B21: 5p-179 (VHH)
VHH: HVQLVESGGGLVQAGGSLRLSCAASGTISTLNAMGWYRQAPGKQRELLASISNLGTTYHADSVAGRFTISRGSAKNTVNLQMNSLKPDDTAVYYCNTRVLEGGTQIRDYWGQGTQVTVSS
notes: class IV psNb
B22: 5p-180 (VHH)
VHH: QVQLVESGGGLVQAGGSLRLSCVASGTISTLNAMGWYRQAPGKQRELLTSISNLGTTYSADSVKGRFTISRGNAKNTVYLQMDSLKPDDTAVYYCNTRVLEGTEYRDYWGQGTQVTVSS
B23: 4P-3 (VHH)
VHH: DVQLVESGGGLVQAGDSLRLSCAASGRTFGNYVLDWFRQAPGKEREFVASITQTGFGTYYADAVKGRFTISRDNAKNTMYLQMNSLKPEDTAVYYCAADFTAQNGGIRNPTYWGQGTQVTVSS

Target: RBDSARS-CoV-2 (SARS-CoV-2 S protein residues 319-539, C-terminal His-tag) (SARS-CoV-2, UniProt P0DTC2 319-539)
Test: ELISA

| Binder | IC50 [nM] |
| --- | --- |
| B1 | < 10 |
| B2 | < 10 |
| B3 | 10 to 100 |
| B4 | 10 to 100 |
| B5 | < 10 |
| B6 | < 10 |
| B7 | < 10 |
| B8 | < 10 |
| B9 | < 10 |
| B10 | < 10 |
| B11 | 10 to 100 |
| B12 | < 10 |
| B13 | < 10 |
| B14 | < 10 |
| B15 | < 10 |
| B16 | < 10 |
| B17 | < 10 |
| B18 | < 10 |
| B19 | < 10 |
| B20 | < 10 |
| B21 | < 10 |
| B22 | < 10 |
| B23 | 10 to 100 |

Target: RBDSARS-CoV (SARS-CoV S protein residues 318-510, C-terminal His-tag) (SARS-CoV, UniProt P59594 318-510)
Test: ELISA

| Binder | IC50 [nM] |
| --- | --- |
| B1 | < 10 |
| B2 | < 10 |
| B3 | 10 to 100 |
| B4 | 10 to 100 |
| B5 | > 8000 |
| B6 | 10 to 100 |
| B7 | 1000 to 8000 |
| B8 | 10 to 100 |
| B9 | < 10 |
| B10 | 10 to 100 |
| B11 | 10 to 100 |
| B12 | 10 to 100 |
| B13 | < 10 |
| B14 | < 10 |
| B15 | < 10 |
| B16 | < 10 |
| B17 | 10 to 100 |
| B18 | 10 to 100 |
| B19 | < 10 |
| B20 | < 10 |
| B21 | > 8000 |
| B22 | > 8000 |
| B23 | 1000 to 8000 |
